Experimental data taken from ChEMBL document CHEMBL2073860, “A third human carnitine/organic cation transporter (OCTN3) as a candidate for the 5q31 Crohn's disease locus (IBD5)” (Biochem Biophys Res Commun, 2003).

Substrate: C[N+](C)(C)CC(O)CC(=O)[O-]
Assay: TP_TRANSPORTER: uptake in Octn3-HepG2 cells
Assay type: functional, cell-based

B1: Solute carrier family 22 member 21 (Mus musculus), Q9WTN6 (protein)
chain: MLDYDEVTAFLGEWGTFQRLIFFLLSASIIPNGFTGLSAVFLTAIPEHRCRIPDTVNLSSAWRNHSIPMETKDGPEVPQKCRRYRLATIANFSELGLEPGRDVDLEQLEQENCLDGWEYDKDIFLSTIVTEWDLVCKDDWKAPLTTSFFYVGVLLGSFISGQLSDRFGRKNILFLTMAMHTGFSFIQVFSVNFEMFTLLYTLVGMGHISNYVAAFVLGTEMLSKSVRIIFATLGVCIFFAFGFMVLPLFAYFIREWRRLLLAITLPGVLCGALWWFIPESPRWLISQGRIKEAEVIIRKAAKINGIVAPSTIFDPSETNKLQDDSSKKPQSHHIYDLVRTPNIRILTIMSIILWLTISVGYFGLSLDTPNLNGNIYVNCFLLAAVEVPAYVLAWLLLQHVSRRYSMAGSLFLGGSVLLLVQLVPSDLHYLSTTLVMVGKFGITSAYSMVYVYTAELYPTVVRNMGVGVSSTASRLGSILSPYFVYLGAYDRRLPYILMGSLTILTAIITLFFPESSGVSLPETIDEMQKVKKLKQRQSLSKKGSPKESKGNVSRTSRTSEPKGF
Km: 20 µM
